Values of other authors as cited in PMC5810417.
Read-outs that look alike come from different tables or passages of the source. One block for each substance: values may come before it.

How the values were obtained:
Prdx6 (Homo sapiens) [1] = biological target: Prdx6 (Homo sapiens) (UniProt P30041)
Prdx6 (Homo sapiens) [2] = biological target: Prdx6 (Homo sapiens) (UniProt P30041); assay: PLA2 activity inhibition
Prdx6 (Homo sapiens) [3] = biological target: Prdx6 (Homo sapiens) (UniProt P30041); remark: listed apart in the source
Prdx6 (Homo sapiens) [4] = biological target: Prdx6 (Homo sapiens) (UniProt P30041); remark: listed apart in the source

Substance: Prdx6 (from UniProt P30041)
- Kd (Prdx6 (Homo sapiens) [1]): < 20 nM

Substance: πGST1-1B and D (from UniProt P09211)
- Kd (Prdx6 (Homo sapiens) [4]): 100 nM

Results, then the substance that gave them:

- Ki (Prdx6 (Homo sapiens) [2]): 130 nM
Substance: SP-A (from UniProt Q8IWL2)

- Ki (Prdx6 (Homo sapiens) [2]): 65 nM
Substance: p67phox (from UniProt P19878)

- Kd (Prdx6 (Homo sapiens) [3]): 50 nM
Substance: πGST1-1A and C (from UniProt P09211)
